Reference: US20110217317A1 (published 2011)

T1: Rhesus D antigen (human, UniProt Q02161 2-417)
T1 construct: whole, on cells; Presented on RhD-positive erythrocytes in all assays; also called RhD; RhD antigen
T1 sequence (looked up): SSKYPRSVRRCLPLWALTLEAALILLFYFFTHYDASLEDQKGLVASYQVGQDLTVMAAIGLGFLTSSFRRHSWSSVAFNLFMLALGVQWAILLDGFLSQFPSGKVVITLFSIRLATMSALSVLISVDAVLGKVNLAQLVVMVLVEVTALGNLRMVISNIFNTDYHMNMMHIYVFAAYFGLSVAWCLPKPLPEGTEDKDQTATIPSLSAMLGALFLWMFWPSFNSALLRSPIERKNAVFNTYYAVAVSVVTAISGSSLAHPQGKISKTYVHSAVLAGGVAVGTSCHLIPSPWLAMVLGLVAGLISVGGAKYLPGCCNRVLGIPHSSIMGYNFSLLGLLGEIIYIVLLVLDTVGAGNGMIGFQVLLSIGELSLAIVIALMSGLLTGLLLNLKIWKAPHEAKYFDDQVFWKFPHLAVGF


Biological target: T1, Rhesus D antigen
Test: agglutination assay, Fab on RhD(+)/RhD(-) RBC mix

binding result | Binder
binds | RhD161.119E09 (Fab, V domains shown, Tested as Fab (periplasmic extract)) VH: EVQLVESGGGVVQSGRSLRLSCAASGFTFSNNGMHWVRQAPGKGLEWVAFIWYDGSNKYYADSVKGRFTISRDNSKNTLYLQMDGLRAEDSAVYYCAREEIAARLYSRYHYAMDVWGQGTMVTVSS VL: DIQMTQSPSFLSASVGDRVTITCRASQGIRRYLAWFQQKPGKAPKLLIFSASTLQSGVPSRFSGSGSGTEFTLTISSLQPEDFATYYCQQLSSYPPYTFGQGTKLEIKR
binds | RhD296.126A03 (Fab, V domains shown, Tested as Fab (periplasmic extract)) VH: EVQLVESGGGVVQPGRSLRLSCEASGFTFSNYGMHWFRQAPGKGLEWVAIIWYDGSNKHYADSVKGRFTISRDNSKNTLYLQMNSLRAEDTAVYFCAREIASRGYSRYLYYFDSWGQGTLVTVSS VL: DIQMTQSPSSLSASVGDRVTITCRASQSISSYLNWYQQKPGKAPKLLIFAASSLQSGVPSRFSGSGSGTDFSLTISSLQPEDFATYYCQQSYSSLALTFGGGTKVEIKR
binds | RhD295.119B11 (Fab, V domains shown, Tested as Fab (periplasmic extract)) VH: QVQLVESGGGLVQPGGSLRLSCVGSGFTFRSFDMNWVRQAPGKGLEWISYINSRGNTRYYVDSVKGRFTISRDNAKNSLYLQMNSLRAEDTAVYYCARDLYGDYDPKSYYYYGMDVWGQGTMVTVSS VL: EIVLTQSPGTLSLSPGERATLSCRASQSFSSGYLAWYQQKPGQAPRLLIYGASNRATGIPDRFSGSGSGTDFTLTISRLEPEDFAVYYCQHYGSSPPITFGQGTRLEIKR
binds | RhD160.119C07 (Fab, V domains shown, Tested as Fab (periplasmic extract)) VH: EVQLVESGGGVVQPGRSLRLSCAASGFTFSNYGMHWVRQAPGKGLEWVAVIWYDGSNRFYADSVKGRFTISRDNSKNTLYLQMNNLRAEDTALYSCAREITTTVVVRRHYLMDIWGQGTTVTVSS VL: DIQLTQSPSSLSASVGDRVSITCRASQGISNSLAWYQQKPGKVPKLLIYAASTLQSGVPSRFSGGGSGTDFTLTISSLQPEDVATYYCQKYNSAPFAFGPGTKVDIKR

Biological target: T1, Rhesus D antigen
Test: Fab screening on red blood cells (agglutination/FACS)

binding result | Binder
binds | RhD300.134H09 (Fab, V domains shown, Tested as Fab (periplasmic extract)) VH: QVQLVESGGGVVQPGRSLRLSCAASGFTFSSYGMHWVRQAPGKGLEWVAVIWYDGSNKYYADSVKGRFTISRDNSKNTLYLQMNSLRAEDTAVYYCAREFYTRSGLWSQGYSYYMDVWGKGTTVTVSS VL: QTVVTQEPSFSVSPGGTVTLTCGLSSGSVSARYYPSWYQQTPGQPPRTLIHSTNTRSSGVPDRFSGSILGNKAALTITGAQADDESDYYCVLYMGSGPWVFGGGTKLTVLG
binds | RhD304.164B06 (Fab, V domains shown, Tested as Fab (periplasmic extract)) VH: QVQLVQSGGGVVQPGRSLRLSCAASGFTFSSYGMHWVRQAPGKGLEWVAVIWYDGSNKYYADSVKGRFTISRDNSKNTLYLQMNSLRAEDTAVYYCARETVVVAAKIRNHYYYAMDVWGQGTTVTVSS VL: DIQMTQSPSSLSASLGGTVTLTCRSSQFISRYLNWYQQHPGKVPRLLISGASRLQRGVPSRFTGGGSGTDFTLTIKNVQPDDIATYFCQHSYRSGRAFGQGTTVEVKR
binds | RhD163.119A02 (Fab, V domains shown, Tested as Fab (periplasmic extract)) VH: QVQLQESGPGLVKPSETLSLTCTVSGGSISSYYWSWVRQPPGKGLEWIGYIYYSGSTNYNPSLKSRVTIALDTSKNQFSLKLRSVTAADTAVYFCTRDWRQYGSAIRGSRYYYGMDVWGQGTTVTVSS VL: EIVLTQSPGTLSLSPGERATLSCRASQNPRRNFLAWYQQKPGQAPRLLIYAASTRATGIPDRFSGSGSGTDFTLTIDRLEPEDSAVYYCQVYGSSPLYTFGQGTKVEMKR
binds | RhD306.223E11 (Fab, V domains shown, Tested as Fab (periplasmic extract)) VH: QVQLVESGGGVVQPGRSLRLSCAASGFTFSSYGMHWVRQAPGKGLEWVAVIWYDGSNKYYADSVKGRFTISRDNSKNTLYLQMNTLRDDDTAVYYCAREGTLYSSSWYRRYYYYGMDAWGQGTTVTVSS VL: EIVLTQSPGTLSLSPGERVTLSCRPSRYIASDYLAWYQLRPGQAPKLLIYGASSRATGIPDRFSGVGSPTDFTLTISRLEPEDFAMYYCHYSGGSPPYPFGQGTRLDIKR
binds | RhD307.230E11 (Fab, V domains shown, Tested as Fab (periplasmic extract)) VH: QVQLVETGGGVVQPGRSLRLSCAASGFTFSSYGMHWVRQAPGKGLEWVAGIWYDGSNKYYGDSVKGRFTISRDNSRNTLYLHMNSLRADDTAVYYCAREHGGSRSGWYTLRLAYYFDYWGQGTLVTVSS VL: DIQLTQSPSSLSASVGDRVTITCRASQYINVYLNWYQHKAGRAPKLLIYAASNLQSGVPPRFIGSGSGTDFTLTISSLQSEDFATYYCLQSFTVPRTFGPGTKVDVKR
binds | RhD317.144A02 (Fab, V domains shown, Tested as Fab (periplasmic extract)) VH: QVQLQESGPGLVKPSGTLSLTCAVSGGSIRGSNWWSWVRQPPGKGLEWIGEIHHGGSTNYNPSLKSRVTISVDKSKNRFSLKLSSVTAADTAVYYCARGTSYYDSSGYSFRGLVAFDIWGQGTMVTVSS VL: EIVLTQSPGTLSLSPGERATLSCRASQSVSSAFLAWYQQKPGQAPRLLIYGASSRATGIPDRFSGSGSGTDFTLTISRLEPEDFAVYYCQQYGSFSITFGQGTRLEIKR
binds | RhD323.229B07 (Fab, V domains shown, Tested as Fab (periplasmic extract)) VH: QVQLVESGGGVVQPGRSLRLSCAASGFTFSSYGMHWVRQAPGKGLEWVAVIWYDGSNKYYADSVKGRFTISRDNSKNTLYLQMNSLRAEDTAVYYCARDWVTRSSNWYRNYYYYGMDVWGQGTTVTVSS VL: DIQMTQSPSSLSASVGDRVTITCRASQSISSYLNWYQQKPGKAPKLLIYAASTLQSGVPSRFSGSGSGTDFTLTISSLQPEDFATYYCQQYYRTPTWTFGQGTKVEIKR
binds | RhD305.181E06 (Fab, V domains shown, Tested as Fab (periplasmic extract)) VH: QVQLVESGGGVVQPGRSLRLSCAASGFTFSSYGMHWVRQAPGKGLEWVAGIWYDGSNKYYADSVKGRFTISRDNSRNTMYLQMNSLRAEDTAVYYCAREQGGYSSSWYRRYYYYNMDLWGQGTTVTVSS VL: EIVLTQSPGSLSLSPGERATLSCRASQSVSSSYLAWYQQKPGQAPRLLIYGPSSRATGIPDRFSGSGSGTDFTLTISRLEPEDFAVYYCQHFGNSRGTFGQGTKVEIRR
binds | RhD321.187G08 (Fab, V domains shown, Tested as Fab (periplasmic extract)) VH: EVQLVESGGGLVKPGGSLRLSCAASGFTFRSYSMNWVRQAPGKGLEWVSSIGSSSIYTYSADSVKGRFTISRDNAKNSLYLQMNSLRAEDTAVYYCARGEPLNYDYIWGRSRLTIHWGQGTLVTVSS VL: LNFMLTQPHSVSESPGKTVTISCTRSSGSIASNYMQWYQQRPGSSPTTVIYEDNRRPSGVPDRFSGSIDSSSNSASLTISGLKTEDEADYYCQSYDSNNWVFGGGTKLTVLG
binds | RhD299.127A12 (Fab, V domains shown, Tested as Fab (periplasmic extract)) VH: QVQLVESGGGVVQPGRSLRLSCAASGFTFSNFGMHWVRQAPGKGLEWVAVIWYDGSNKDYADSVKGRFTISRDNSKRTLYLQMNSLRAEDTAVYYCARELARGRLRDLDYWGQGTLVTVSS VL: QAVVTQEPSLTVSPGGTVTLTCASSTGAVTTGYYPNWFQQKPGQAPRALIYSTSKKHSWTPARFSGSLLGGKAALTLSGVQPEDEAEYYCLLFYGGAQLGVFGGGTKLTVLG
binds | RhD319.187A11 (Fab, V domains shown, Tested as Fab (periplasmic extract)) VH: QVQLVESGGGVVQPGRSLRLSCAASGFTFSTYGMHWVRQAPGKGLEWVAVIWYDGSNKNYADSVKGRFTISRDNSKNTLYLQMNSLRAEDTAVYYCARDLQGYRSSWYRMYYYYGMDVWGQGTTVTVSS VL: QTVVTQEPSLTVSPGGTVTLTCASSTGAVTSGYYPNWFQQKPGQAPRALIYSTSNKHSWTPARFSGSLLGGKAALTLSGVQPEDEAEYYCLLYYGGAQRWVFGGGTILTVLG
binds | RhD301.160A04 (Fab, V domains shown, Tested as Fab (periplasmic extract)) VH: QVQLVESGGGVVQPGRSLRLSCAASGFTFSSYGMHWVRQAPGKGLEWVAVIWFDGGNKYYADSAKGRFTISRDNSKNTLYLQMNSLRAEDTAVYYCARDASVLSGLVTRRLVYYGMDVWGQGTTVTVSS VL: DVVMTQSPLSLPVTPGEPASISCRSSQSLLHRNGYNYLNWYLQKPGQSPQLLIYLGSNRASGVPDRFSGSGSGTDFTLKISGVEAEDVAFYYCMQGLRTPYTFGQGTKLEIKR
binds | RhD162.119G12 (Fab, V domains shown, Tested as Fab (periplasmic extract)) VH: QVQLVESGGGLVKPGGSLRLSCAASGFGFSAYSMNWVRQAPGKGLEWVSSITSTTTYYADSVKGRFSISRDNAKSTLYLRMNSLRAEDTAVYYCVREIAFRGSTYSRWSYYFDFWGQGTLVTVSS VL: DIQLTQSPSSVSASVGDSVTITCRASQAVSGWVAWYQQKPGKAPKLLIFGLSNLEDGVPSRFSGSGSATDFTLTITGLQPEDLATYYCLQANRFPLSFGGGTRVEIKR
binds | RhD324.231F07 (Fab, V domains shown, Tested as Fab (periplasmic extract)) VH: EVQLVESGGGLVQPGRSLRLSCVASGFTFSSYWMHWVRQVPGKGLVWVSRINVDGKSTSYADSVKGRFTISRDNAKNTLYLQMNSLRAEDTAVYYCARDPRRFLEWARYGMDVWGRGTTVTVSS VL: not shown
binds | RhD302.160B10 (Fab, V domains shown, Tested as Fab (periplasmic extract)) VH: QVQLVESGGGVVQPGRSLRLSCAASGFTFSSYGMHWVRQAPGKGLEWVAFISYDGSNKYYADSVKGRFTISRDNSKNTLSLQMNSLRAEDTAVYYCAKEHGYYRSSWYRNYYYYGMDVWGQGTTVTVSS VL: DIQLTQSPSSLSASVGDRVTITCRASQSISSYLNWYKQRPGKAPKLLIYAASTLQSGVPSRFSGSGSGTDFALTISSLQAEDFATYYCQQTYSTLWTFGQGTKVEITR
binds | RhD303.160B11 (Fab, V domains shown, Tested as Fab (periplasmic extract)) VH: QVQLVESGGGVVQPERSLRLSCAASGFTFSSYGMHWVRQAPGKGLEWVAVISYDGSNKYYADSVKGRFTISRDNSKNTLYLQMNSLRAEDTAVYYCAKDEVGYSSSWYRRYYYYAMDVWGQGTTVTVSS VL: EIVLTQSPGTLSLSPGETATLSCRASQSVSDRDLAWYQQKSGQSPRLLMYGGSTRAPGIPVRFSGSGSGTEFTLTISSLQSEDFAIYYCQHYHDWPPTFGQGTRLEIKR
